Residue numbers refer to the chain shown, from its start. Names may count otherwise.
B1: H183/L072 VH T28A (antibody, name in Kabat numbering, V domains shown)
VH: QVQLVESGGGLVQPGRSLRLSCAASGFAFSNAWMHWVRQAPGKGLEWVAQIKDKGNAYAAYYAPSVKGRFTISRDDSKNSIYLQMNSLKTEDTAVYYCHYVHYASASTVLPAFGVDAWGQGTTVTVSS
VL: DIVMTQSPLSLPVTPGEPASISCQASQELVHMNRNTYLHWYQQKPGQAPRLLIYKVSNRFPGVPDRFSGSGSGTDFTLKISRVEAEDVGVYYCAQGTSVPFTFGQGTKLEIK
B2: H183/L072 VH T100bA (antibody, name in Kabat numbering, V domains shown)
VH: B1 VH with A28T, T108A
VL: B1 VL
B3: H183/L072 VH Y55F (antibody, name in Kabat numbering, V domains shown)
VH: B1 VH with A28T, Y58F
VL: B1 VL
B4: H183/L072 VH T28R (antibody, name in Kabat numbering, V domains shown)
VH: B1 VH with A28R
VL: B1 VL
B5: H183/L072 VH T28K (antibody, name in Kabat numbering, V domains shown)
VH: B1 VH with A28K
VL: B1 VL
B6: H183/L072 VH W33Y (antibody, name in Kabat numbering, V domains shown)
VH: B1 VH with A28T, W33Y
VL: B1 VL
B7: H183/L072 VH V63I (antibody, name in Kabat numbering, V domains shown)
VH: B1 VH with A28T, V66I
VL: B1 VL
B8: H183/L072 VH V95I (antibody, name in Kabat numbering, V domains shown)
VH: B1 VH with A28T, V101I
VL: B1 VL
B9: H183/L072 VH V63P (antibody, name in Kabat numbering, V domains shown)
VH: B1 VH with A28T, V66P
VL: B1 VL
B10: H183/L072 VH T100bL (antibody, name in Kabat numbering, V domains shown)
VH: B1 VH with A28T, T108L
VL: B1 VL
B11: H183/L072 VH T28Q (antibody, name in Kabat numbering, V domains shown)
VH: B1 VH with A28Q
VL: B1 VL
B12: H183/L072 VH V95L (antibody, name in Kabat numbering, V domains shown)
VH: B1 VH with A28T, V101L
VL: B1 VL
B13: H183/L072 VH Y55E (antibody, name in Kabat numbering, V domains shown)
VH: B1 VH with A28T, Y58E
VL: B1 VL
B14: H183/L072 VH Y55G (antibody, name in Kabat numbering, V domains shown)
VH: B1 VH with A28T, Y58G
VL: B1 VL
B15: H183/L072 VH V100iA (antibody, name in Kabat numbering, V domains shown)
VH: B1 VH with A28T, V115A
VL: B1 VL
B16: H183/L072 VH V95A (antibody, name in Kabat numbering, V domains shown)
VH: B1 VH with A28T, V101A
VL: B1 VL
B17: H183/L072 VH T28P (antibody, name in Kabat numbering, V domains shown)
VH: B1 VH with A28P
VL: B1 VL
B18: H183/L072 VH V100cM (antibody, name in Kabat numbering, V domains shown)
VH: B1 VH with A28T, V109M
VL: B1 VL
B19: H183/L072 VH V63A (antibody, name in Kabat numbering, V domains shown)
VH: B1 VH with A28T, V66A
VL: B1 VL
B20: H183/L072 VH V63L (antibody, name in Kabat numbering, V domains shown)
VH: B1 VH with A28T, V66L
VL: B1 VL
B21: H183/L072 VH V100iM (antibody, name in Kabat numbering, V domains shown)
VH: B1 VH with A28T, V115M
VL: B1 VL
B22: H183/L072 VH T28H (antibody, name in Kabat numbering, V domains shown)
VH: B1 VH with A28H
VL: B1 VL
B23: H183/L072 VH V100cI (antibody, name in Kabat numbering, V domains shown)
VH: B1 VH with A28T, V109I
VL: B1 VL
B24: H183/L072 VH T28I (antibody, name in Kabat numbering, V domains shown)
VH: B1 VH with A28I
VL: B1 VL
B25: H183/L072 VH Y55A (antibody, name in Kabat numbering, V domains shown)
VH: B1 VH with A28T, Y58A
VL: B1 VL
B26: H183/L072 VH T28W (antibody, name in Kabat numbering, V domains shown)
VH: B1 VH with A28W
VL: B1 VL
B27: H183/L072 VH T28V (antibody, name in Kabat numbering, V domains shown)
VH: B1 VH with A28V
VL: B1 VL
B28: H183/L072 VH V100iL (antibody, name in Kabat numbering, V domains shown)
VH: B1 VH with A28T, V115L
VL: B1 VL
B29: H183/L072 VH V100cL (antibody, name in Kabat numbering, V domains shown)
VH: B1 VH with A28T, V109L
VL: B1 VL
B30: H183/L072 VH Y55D (antibody, name in Kabat numbering, V domains shown)
VH: B1 VH with A28T, Y58D
VL: B1 VL
B31: H183/L072 VH T28E (antibody, name in Kabat numbering, V domains shown)
VH: B1 VH with A28E
VL: B1 VL
B32: H183/L072 VH W33L (antibody, name in Kabat numbering, V domains shown)
VH: B1 VH with A28T, W33L
VL: B1 VL
B33: H183/L072 VH T28M (antibody, name in Kabat numbering, V domains shown)
VH: B1 VH with A28M
VL: B1 VL
B34: H183/L072 VH V95M (antibody, name in Kabat numbering, V domains shown)
VH: B1 VH with A28T, V101M
VL: B1 VL
B35: H183/L072 VH Y55H (antibody, name in Kabat numbering, V domains shown)
VH: B1 VH with A28T, Y58H
VL: B1 VL
B36: H183/L072 VH Y55K (antibody, name in Kabat numbering, V domains shown)
VH: B1 VH with A28T, Y58K
VL: B1 VL
B37: H183/L072 VH V100cA (antibody, name in Kabat numbering, V domains shown)
VH: B1 VH with A28T, V109A
VL: B1 VL
B38: H183/L072 VH V100iI (antibody, name in Kabat numbering, V domains shown)
VH: B1 VH with A28T, V115I
VL: B1 VL
B39: H183/L072 VH T28G (antibody, name in Kabat numbering, V domains shown)
VH: B1 VH with A28G
VL: B1 VL
B40: H183/L072 VH V95P (antibody, name in Kabat numbering, V domains shown)
VH: B1 VH with A28T, V101P
VL: B1 VL
B41: H183/L072 VH V63M (antibody, name in Kabat numbering, V domains shown)
VH: B1 VH with A28T, V66M
VL: B1 VL
B42: H183/L072 VH T28Y (antibody, name in Kabat numbering, V domains shown)
VH: B1 VH with A28Y
VL: B1 VL
B43: H183/L072 VH T100bI (antibody, name in Kabat numbering, V domains shown)
VH: B1 VH with A28T, T108I
VL: B1 VL
B44: H183/L072 VH T100bM (antibody, name in Kabat numbering, V domains shown)
VH: B1 VH with A28T, T108M
VL: B1 VL

The binders below were run against T1, Human CD137 ECD (human) (assay: single mutant vs template dBBDu183H).
T1 construct: also called 4-1BB
T1 sequence (chain, as listed by the source limits assumed): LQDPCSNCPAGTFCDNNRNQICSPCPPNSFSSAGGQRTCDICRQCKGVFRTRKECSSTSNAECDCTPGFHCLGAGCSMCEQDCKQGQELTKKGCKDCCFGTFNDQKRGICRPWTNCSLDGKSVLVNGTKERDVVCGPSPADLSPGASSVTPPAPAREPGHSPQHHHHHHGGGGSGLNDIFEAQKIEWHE

Binder	fold change of affinity [fold]
B1	0.4
B2	0
B3	0.5
B4	1.5
B5	1.1
B6	0
B7	1.1
B8	0.3
B9	1
B10	0.1
B11	0.5
B12	0.2
B13	0.4
B14	0.3
B15	0
B16	0
B17	0.5
B18	1.3
B19	0.9
B20	0.9
B21	0
B22	1.1

Binder	fold change of affinity [fold]
B23	2.5
B24	0.8
B25	0.3
B26	0.8
B27	1.2
B28	0.1
B29	3.3
B30	0.4
B31	0.3
B32	0
B33	0.7
B34	0
B35	0.4
B36	0.2
B37	0.4
B38	1.1
B39	0.3
B40	0
B41	0.8
B42	1.1
B43	0
B44	0.5
